# Results taken from the supplement of paper PMC7877785.
# ± gives the uncertainty stated by the source.
# Assay: self-splicing fitness, log relative to wild type (ln ratio); higher = more splicing; Tetrahymena group I intron in knt gene, E. coli kanamycin selection, DiMSum; sequences stand for … in CUCUCU…GGAGGGAAAAGUUAUCAGGCAUGCACCUGGUAGCUAGUCUUUAAACCAAUAGAUUGCAUCGGUUUAAAAGGCAAGACCGUCAAAUUGCGGGAAAGGGGUCAACAGCCGUUCAGUACCAAGUCUCAGGGGAAACUUUGAGAUGGCCUUGCAAAGGGUAUGGUAAUAAGCUGACGGACAUGGUCCUAACCACGCAGCCAAGUCCUAAGUCAACAGAUCUUCUGUUGAUAUGGAUGCAGUUCACAGACUAAAUGUCGGUCGGGGAAGAUGUAUUCUUCUCAUAAGAUAUAGUCGGACCUCUCCUUAAUGGGAGCUAGCGGAUGAAGUGAUGCAACACUGGAGCCGCUGGGAACUAAUUUGUAUGCGAAAGUAUAUUGAUUAGUUUUGGAGUACUCGUGGUCG
# Summary of the method: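 A randomised library covering all eight P1ex-region intron nucleotides was built with the intron in the knt kanamycin-resistance gene on pET-22b(+) and held in E. coli BL21(DE3). Cells were grown overnight at 37°C or 30°C on LB agar, with or without 25 μg/mL kanamycin, plus 100 μg/mL carbenicillin, 50 μM IPTG and 0.2% rhamnose, and pooled colonies were amplicon-sequenced on an Illumina HiSeq 2500. DiMSum fitness is the error-weighted combination of wild-type-normalised replicate fold changes, kanamycin versus none.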
Sequence,self-splicing fitness (ln) (30 °C),self-splicing fitness (ln) (37 °C)
AACAAGCAAUAUUACGGGAC,-2.86 ± 0.12,-1.17 ± 0.12
AACAAGCAAUAUUACGGGGC,,-2.18 ± 0.23
AACAAGCAAUAUUACGUAAA,-2.36 ± 0.09,-1.17 ± 0.098
AACAAGCAAUAUUACGUAGC,-3.1 ± 0.09,-2.07 ± 0.1
AACAAGCAAUAUUACGUCCC,-0.608 ± 0.12,-0.718 ± 0.17
AACAAGCAAUAUUACGUUCG,-2.86 ± 0.1,-1.76 ± 0.13
AACAAGCAAUAUUACGUUUC,-4.46 ± 0.22,-2.95 ± 0.15
AACCAGCAAUAUUACGAACA,-0.809 ± 0.07,0.214 ± 0.07
AACCAGCAAUAUUACGAAGG,-3.19 ± 0.23,-1.8 ± 0.22
AACCAGCAAUAUUACGACCG,-0.744 ± 0.087,-0.237 ± 0.14
AACCAGCAAUAUUACGAGCG,-1.14 ± 0.072,-0.281 ± 0.084
AACCAGCAAUAUUACGCAAC,-2.78 ± 0.13,-0.698 ± 0.11
AACCAGCAAUAUUACGCAAU,-1.86 ± 0.081,-0.25 ± 0.098
AACCAGCAAUAUUACGCAUU,-1.58 ± 0.068,0.096 ± 0.086
AACCAGCAAUAUUACGCCAC,-3.16 ± 0.19,-2.97 ± 0.4
AACCAGCAAUAUUACGCGAC,-2.27 ± 0.14,-1.2 ± 0.12
AACCAGCAAUAUUACGCUAG,-2.62 ± 0.082,-0.715 ± 0.08
AACCAGCAAUAUUACGCUCU,-0.0812 ± 0.054,0.0106 ± 0.07
AACCAGCAAUAUUACGCUGG,-2.8 ± 0.14,-2.25 ± 0.19
AACCAGCAAUAUUACGCUUC,-4.25 ± 0.16,-2.3 ± 0.11
AACCAGCAAUAUUACGGAGG,-1.36 ± 0.076,-0.444 ± 0.12
AACCAGCAAUAUUACGGAUU,-2.07 ± 0.071,-1.08 ± 0.087
AACCAGCAAUAUUACGGCUG,-3.63 ± 0.14,-3.05 ± 0.16
AACCAGCAAUAUUACGGGCA,-0.402 ± 0.041,0.117 ± 0.053
AACCAGCAAUAUUACGGUAG,-1.99 ± 0.058,-1.02 ± 0.066
AACCAGCAAUAUUACGUACC,-0.685 ± 0.08,0.0338 ± 0.11

Sequence,self-splicing fitness (ln) (30 °C),self-splicing fitness (ln) (37 °C)
AACCAGCAAUAUUACGUAGG,-2.67 ± 0.089,-1.79 ± 0.099
AACCAGCAAUAUUACGUAUA,-1.4 ± 0.072,-0.853 ± 0.088
AACCAGCAAUAUUACGUCCC,-0.726 ± 0.13,0.292 ± 0.18
AACCAGCAAUAUUACGUCUU,0.0745 ± 0.044,0.393 ± 0.063
AACCAGCAAUAUUACGUGGA,-2.33 ± 0.093,-1.13 ± 0.08
AACCAGCAAUAUUACGUGGC,-3.06 ± 0.12,-2.99 ± 0.17
AACCAGCAAUAUUACGUGUA,-0.891 ± 0.041,-0.409 ± 0.049
AACCAGCAAUAUUACGUUCC,-2.94 ± 0.17,-0.871 ± 0.14
AACGAGCAAUAUUACGAAAG,-2.83 ± 0.48,-1.43 ± 0.32
AACGAGCAAUAUUACGAAGG,,-2.3 ± 0.2
AACGAGCAAUAUUACGAAUC,-3.96 ± 0.26,-2.5 ± 0.41
AACGAGCAAUAUUACGACAC,,-1.46 ± 0.32
AACGAGCAAUAUUACGAGUA,-3.14 ± 0.17,-2.12 ± 0.14
AACGAGCAAUAUUACGCACG,-2.8 ± 0.38,-0.837 ± 0.25
AACGAGCAAUAUUACGCAUA,-2.86 ± 0.38,-1.26 ± 0.35
AACGAGCAAUAUUACGCAUU,-1.24 ± 0.12,-2.9 ± 0.24
AACGAGCAAUAUUACGCGCA,-1.28 ± 0.094,-2.1 ± 0.12
AACGAGCAAUAUUACGCGUA,-2.19 ± 0.19,-1.72 ± 0.18
AACGAGCAAUAUUACGCUGU,-2.67 ± 0.45,-2.99 ± 0.4
AACGAGCAAUAUUACGGAGU,,-1.74 ± 0.14
AACGAGCAAUAUUACGGCCU,-1.16 ± 0.2,-0.95 ± 0.2
AACGAGCAAUAUUACGGCUA,-1.23 ± 0.15,-0.829 ± 0.18
AACGAGCAAUAUUACGGUAC,,-1.34 ± 0.22
AACGAGCAAUAUUACGGUCC,,-1.13 ± 0.31
AACGAGCAAUAUUACGUAAC,-2.83 ± 0.2,-1.83 ± 0.44
AACGAGCAAUAUUACGUACA,-3.11 ± 0.17,-2.19 ± 0.14

Sequence,self-splicing fitness (ln) (30 °C),self-splicing fitness (ln) (37 °C)
AACGAGCAAUAUUACGUAUG,-4.21 ± 0.23,-2.59 ± 0.17
AACGAGCAAUAUUACGUGAC,,-2.76 ± 0.23
AACGAGCAAUAUUACGUGCC,-3.37 ± 0.27,-1.85 ± 0.3
AACUAGCAAUAUUACGAACU,-0.149 ± 0.088,-0.455 ± 0.098
AACUAGCAAUAUUACGACUA,-0.192 ± 0.2,-1.24 ± 0.15
AACUAGCAAUAUUACGAGGA,-1.71 ± 0.1,-1.89 ± 0.11
AACUAGCAAUAUUACGAUCU,-0.146 ± 0.082,0.426 ± 0.098
AACUAGCAAUAUUACGAUGG,-2.49 ± 0.17,-0.739 ± 0.14
AACUAGCAAUAUUACGCAAC,-3.49 ± 0.21,-2.08 ± 0.18
AACUAGCAAUAUUACGCAGU,-4.36 ± 0.41,-1.96 ± 0.21
AACUAGCAAUAUUACGCGAA,-2.81 ± 0.16,-1.05 ± 0.12
AACUAGCAAUAUUACGCGUA,-1.19 ± 0.09,-0.289 ± 0.083
AACUAGCAAUAUUACGCUAU,-2.88 ± 0.14,-1.84 ± 0.13
AACUAGCAAUAUUACGCUCC,-1.39 ± 0.15,-0.732 ± 0.19
AACUAGCAAUAUUACGCUUG,-2.18 ± 0.11,-1.16 ± 0.12
AACUAGCAAUAUUACGGAGC,-1.86 ± 0.15,-0.604 ± 0.15
AACUAGCAAUAUUACGGGAU,-1.53 ± 0.079,-0.855 ± 0.081
AACUAGCAAUAUUACGGGGC,-3.61 ± 0.23,-3.1 ± 0.35
AACUAGCAAUAUUACGUAAA,-1.87 ± 0.11,-1.01 ± 0.11
AACUAGCAAUAUUACGUACA,-1.19 ± 0.099,-0.373 ± 0.13
AACUAGCAAUAUUACGUCUC,-3.37 ± 0.16,-2.54 ± 0.15
AACUAGCAAUAUUACGUGAC,-2.92 ± 0.12,-1.38 ± 0.12
AACUAGCAAUAUUACGUUGG,-3.74 ± 0.22,-3.5 ± 0.22
AAGAAGCAAUAUUACGAAUC,-2.91 ± 0.15,-2.64 ± 0.26
AAGAAGCAAUAUUACGAAUG,-2.19 ± 0.13,-1.66 ± 0.14
AAGAAGCAAUAUUACGACCC,-1.01 ± 0.16,-0.395 ± 0.17
